Reference: paper PMC11221535
pKd: −log10 of the molar value.

How the values were obtained:
Assay in all cases: ITC
[1] = target: TobE N-terminal docking domain (TobE ^NDD) (Methylorubrum extorquens AM1)
[2] = target: TobE ^NDD-ACP didomain (Methylorubrum extorquens AM1)
[3] = target: TobC C-terminal docking domain (TobC ^CDD) (Methylorubrum extorquens AM1)

Substance | pKd [1] | stoichiometry N [1] | pKd [2] | pKd [3] | stoichiometry N [3]
TobC C-terminal docking domain (TobC ^CDD) (domain or fragment) | 5.40 | 0.8 | 5.24 |  | 
TobC ^CDD R2271A (domain or fragment) | 3.11 |  |  |  | 
TobE N-terminal docking domain (TobE ^NDD) (domain or fragment) |  |  |  | 5.49 | 1
